Experiment [1] deals with T1, fibrinogen (Homo sapiens, UniProt P02675+P02679).
T1 sequence (P02679 27-453): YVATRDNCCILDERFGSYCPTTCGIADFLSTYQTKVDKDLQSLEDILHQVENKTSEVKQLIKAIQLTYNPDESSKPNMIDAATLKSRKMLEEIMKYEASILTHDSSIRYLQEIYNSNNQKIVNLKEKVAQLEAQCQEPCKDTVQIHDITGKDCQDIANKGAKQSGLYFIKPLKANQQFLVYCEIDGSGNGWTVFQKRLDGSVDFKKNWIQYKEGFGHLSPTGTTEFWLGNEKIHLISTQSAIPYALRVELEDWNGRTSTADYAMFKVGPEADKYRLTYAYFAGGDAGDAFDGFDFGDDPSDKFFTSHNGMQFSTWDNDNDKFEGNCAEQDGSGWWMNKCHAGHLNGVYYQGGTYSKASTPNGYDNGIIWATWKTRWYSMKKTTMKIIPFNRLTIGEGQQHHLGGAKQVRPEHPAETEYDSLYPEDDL
T1 sequence (P02675 31-491): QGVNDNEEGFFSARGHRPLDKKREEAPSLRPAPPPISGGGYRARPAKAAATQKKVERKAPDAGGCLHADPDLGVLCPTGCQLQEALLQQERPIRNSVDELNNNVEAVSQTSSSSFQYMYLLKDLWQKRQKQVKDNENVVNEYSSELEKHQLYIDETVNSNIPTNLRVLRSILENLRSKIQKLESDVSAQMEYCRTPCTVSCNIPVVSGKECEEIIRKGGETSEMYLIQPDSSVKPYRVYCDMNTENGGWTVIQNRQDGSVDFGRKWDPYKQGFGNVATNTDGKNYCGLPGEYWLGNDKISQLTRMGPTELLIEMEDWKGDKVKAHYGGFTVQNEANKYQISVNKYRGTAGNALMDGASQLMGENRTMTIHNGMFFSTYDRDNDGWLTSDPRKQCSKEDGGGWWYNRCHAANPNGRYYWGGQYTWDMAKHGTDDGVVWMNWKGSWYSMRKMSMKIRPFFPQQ
T1 sequence (P02671 20-629 partner limits assumed): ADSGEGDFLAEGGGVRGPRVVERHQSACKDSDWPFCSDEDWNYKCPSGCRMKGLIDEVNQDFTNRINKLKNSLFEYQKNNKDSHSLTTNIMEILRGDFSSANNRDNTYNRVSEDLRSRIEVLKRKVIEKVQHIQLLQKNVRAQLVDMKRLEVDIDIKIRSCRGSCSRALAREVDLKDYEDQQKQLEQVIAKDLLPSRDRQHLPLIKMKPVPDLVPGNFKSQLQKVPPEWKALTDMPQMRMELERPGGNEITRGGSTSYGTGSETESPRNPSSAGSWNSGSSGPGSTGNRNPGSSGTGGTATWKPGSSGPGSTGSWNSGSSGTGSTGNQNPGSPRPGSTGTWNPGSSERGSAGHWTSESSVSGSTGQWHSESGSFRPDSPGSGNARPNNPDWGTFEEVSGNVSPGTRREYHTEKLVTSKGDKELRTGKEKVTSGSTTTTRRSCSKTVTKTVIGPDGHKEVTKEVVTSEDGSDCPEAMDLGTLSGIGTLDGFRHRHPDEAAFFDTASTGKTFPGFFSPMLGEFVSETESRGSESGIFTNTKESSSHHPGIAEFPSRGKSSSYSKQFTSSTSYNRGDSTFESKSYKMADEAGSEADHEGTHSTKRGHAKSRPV
The following applies: cited from earlier work.

In experiment [2] the target is T2, purified human fibrinogen (Homo sapiens, UniProt P02675+P02679).
T2 sequence (P02679 27-453): T1 sequence (P02679 27-453)
T2 sequence (P02675 31-491): T1 sequence (P02675 31-491)
T2 sequence (P02671 20-629 partner limits assumed): T1 sequence (P02671 20-629 partner limits assumed)
Nature of the experiment: Co-polymerisation with purified human fibrinogen, clotting time (Sigma Amelung KC4 Delta coagulation analyser). It counts as biochemical. As to the method: The ability of Peptide Dendrimer No. 12 to polymerise fibrinogen was assessed. 30 μl of dendrimer in solution, at concentration ranging from 0.005-2 mg/ml, was added to 100 μl purified human fibrinogen at 3 mg/ml (the level of fibrinogen found in the blood). Polymerisation of fibrinogen was analysed using a Sigma Amelung KC4 Delta coagulation analyser.
The ability of Peptide Dendrimer Nos. 4, 5, 10, 11, and 12 to copolymerise with fibrinogen was assessed using the same method described in Example 11. The concentration of each dendrimer was varied from 0.005-0.5 mg/ml.
The ability of the dendrimers to copolymerise with fibrinogen was assessed using the same method described in Example 11, for a concentration of each dendrimer ranging from 0.005-0.5mg/ml.
The ability of the dendrimers to copolymerise with fibrinogen was assessed using the same method described in Example 11, for a concentration of each dendrimer ranging from 0.005-0.5 mg/ml.
Peptide Conjugate No. 1 or 2 (2 mg/ml) was mixed with Peptide Dendrimer No. 3 or 4, and fibrinogen, and the ability of the mixtures to copolymerise with fibrinogen was assessed using the same method described in Example 11, for a concentration of each dendrimer ranging from 0.025-0.5 mg/ml.

The target in experiment [3] is T3, fibrinogen in human plasma (Homo sapiens, UniProt P02675+P02679).
T3 construct: from tissue; host or cells: human plasma
T3 sequence (P02679 27-453): T1 sequence (P02679 27-453)
T3 sequence (P02675 31-491): T1 sequence (P02675 31-491)
T3 sequence (P02671 20-629 partner limits assumed): T1 sequence (P02671 20-629 partner limits assumed)
Description: Polymerisation of fibrinogen in human plasma (KC4 Delta coagulation analyzer). It counts as biochemical. As to conditions: 30 μL dendrimer 0.25 mg/ml added to 100 μL human plasma, 37° C. As to the method: The ability of several different peptide dendrimers (Nos. 4, 5, 8, 9, 10, 11, 12, 13) to polymerise fibrinogen in human plasma was tested.
30 μL of each dendrimer (at a concentration of 0.25 mg/ml) was added to 100 μL human plasma at 37° C., and polymerisation of fibrinogen was determined using a Sigma Amelung KC4 Delta coagulation analyzer.

Experiment [4] concerns the target T1, fibrinogen. Description: Clotting activity of dendrimer extracted from gamma-irradiated gelatin paste. The following applies: paste with SURGIFLO, extract about 0.25 mg/ml, fibrinogen 3 mg/ml, 37° C. It counts as biochemical. The protocol: 2 ml of solution of Peptide Dendrimer No. 12 or 13 was mixed with SURGIFLO Haemostatic Matrix (a hydrated flowable gelatin matrix) to form a paste of each peptide. Each paste was sterilised by irradiation with ^60Co gamma rays at a dose of 30 kGy, and then stored at room temperature. Samples of the sterilised pastes were used for testing after storage for two and four weeks.
After storage, peptide dendrimers were extracted from each paste using 10 mM HEPES buffer. 30 μL of each extract (with a peptide concentration of about 0.25 mg/ml) was added to 100 μL of human fibrinogen at 3 mg/ml, and the ability of each dendrimer to polymerise fibrinogen (the ‘clotting’ activity) at 37° C. was determined using a Sigma Amelung KC4 Delta coagulation analyser. The polymerisation activity of non-irradiated control samples was also determined.

In the case of GHRPY, in experiment [1], the “binding preference for hole 'a' / hole 'b' of fibrinogen” value was “binds strongly and preferentially to the ‘b’ hole of fibrinogen”.
In the case of GPRP, the “binding preference for hole 'a' / hole 'b' of fibrinogen” value in experiment [1] was “binds strongly and preferentially to the ‘a’ hole of fibrinogen”.
Regarding GPRPFPA, in experiment [1], the “binding preference for hole 'a' / hole 'b' of fibrinogen” value is “binds with high preference for hole ‘a’ in fibrinogen”.
Take GPRPG: in experiment [1], the “binding preference for hole 'a' / hole 'b' of fibrinogen” value was “binds to hole ‘a’ and hole ‘b’ of fibrinogen, but with some preference for hole ‘a’”.
On to “Peptide Dendrimer No. 12 (peptide GPRPG; chain KKKKK)”, for which, in experiment [2] (dendrimer 0.005-2 mg/ml, fibrinogen 3 mg/ml), the “ability to copolymerise with fibrinogen” value is reported as “able to copolymerise with fibrinogen almost instantaneously”. Besides, in experiment [2] (dendrimer in the range ~0.02-0.5 mg/ml), the clotting result is given as “almost instantaneous clotting”. In addition, in experiment [3], the “ability to polymerise fibrinogen in human plasma” value was “able to polymerise fibrinogen in human plasma” and the clotting time result is recorded as “less than one second”. In experiment [4] (30 kGy gamma, 2 weeks room temperature), the “Clotting activity (seconds), Storage for 2 weeks post irradiation” value is 1 s. Also, the “Clotting activity (seconds), Storage for 4 weeks post irradiation” value in experiment [4] (30 kGy gamma, 4 weeks room temperature) was found to be 1 s. In addition, the “Clotting activity (seconds), Non-irradiated control” value in experiment [4] (not irradiated) amounted to 1 s.

The record behind these values is patent US20180140737A1, “HAEMOSTATIC MATERIAL” (HAEMOSTATIX LIMITED, priority 2015, published 2018).
